Patent publication US20100048450A1, “Sumoylation Control Agent and Uses Thereof” (priority 2005, published 2010)
Blank lines part the entries; values can stand above or below the molecule they belong to. Residues, ends and D or L forms follow the SMILES beside them. *: point of attachment. Cbz = O=C(OCc1ccccc1)*

How the values were obtained:
[1] = test system: HLS-5; assay: Confocal microscopy of HLS-5 localisation in COS7 cells; format: cell-based
Description: (A) Confocal microscopy of COS7 cells co-expressing Myc-tagged HLS-5 and GFP-SUMO-1. HLS-5 was detected with anti-Myc antibodies in conjunction with red secondary antibodies and SUMO-1 detected by green fluorescent. (B) Confocal microscopy of COS7 cells co-expressing Myc-tagged HLS-5 and GATA-1. GATA-1 was detected with an anti-GATA-1 antibody and HLS-5 was detected with anti-Myc antibodies in conjunction with red and green fluorescent secondary antibodies respectively. (C) Confocal microscopy of COS7 cells co-expressing myc-tagged HLS-5 in the presence of MG132. HLS-5 was detected with anti-Myc antibodies in conjunction with red fluorescent secondary antibodies
(§1) Also, COS7 cells co-expressing Myc-tagged HLS-5 or a mutant form of HLS-5 lacking its Ring finger (ΔN61) and HA-tagged SUMO1 were analysed in the presence or absence of MG132.
As HLS-5 is located principally within cytoplasmic granules, the effects of Ubc9, PIAS1, MG-132 and SUMO-1 on HLS-5 compartmentalization were investigated. […] However, when the SUMO-1 and HLS-5 were co-expressed, there was a remarkable increase in the amount of HLS5 appearing in the nucleus (FIG. 3A). Therefore SUMO1 promoted translocation of HLS-5 from cytoplasmic granules into the nucleus.

[2] = test system: Hela cells; assay: HLS5-induced apoptosis in co-transfected Hela cells; format: cell-based, human; details: HLS5 alone or co-transfected with the named protein
Description: To examine the biological effects of Ubc9, PIAS1 and SUMO-1 on HLS5-induced apoptosis, COS cells and HeLa cells were co-transfected with these molecules and cell death monitored. […] However, the effects of SUMO-1 on cell death induced by HLS5 were less pronounced.

[3] = biological target: T1, Ubc9 (Homo sapiens, UniProt P63279); assay: Yeast two-hybrid binding of HLS-5 to Ubc9; details: yeast 2 hybrid, β-galactosidase filter assay
T1 construct: expressed in transfected cells; host or cells: yeast (two-hybrid)
T1 sequence (P63279 whole entry, species assumed): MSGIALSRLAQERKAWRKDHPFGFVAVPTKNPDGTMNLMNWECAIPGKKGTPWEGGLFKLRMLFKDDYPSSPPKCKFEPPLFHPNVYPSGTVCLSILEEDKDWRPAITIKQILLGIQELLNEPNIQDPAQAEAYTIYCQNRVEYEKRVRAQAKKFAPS
Experimental: (§2) (A) Full length Ubc9 was examined for binding to various HLS-5 constructs as shown using yeast two-hybrid. Binding was measured by filter assay for β-galactosidase activity. (B) BRET assay of COS7 cells expressing HLS-5. Rluc fusion protein with increasing amounts of GFP-Ubc9 fusion protein. Results presented as BRET ratio. (C) PIAS1 (aa 303-651) fragment isolated from the Y2H screen was assessed for binding to various HLS-5 constructs as shown using yeast two-hybrid. Binding was measured by filter assay for β-galactosidase activity. (D) Lysates from COS7 cells transfected with Myc-tagged HLS-5, HA-tagged PIAS1 and/or GATA-1 were immunoprecipitated (IP) with anti-Myc antibodies and immunoblotted (IB) with antibodies to HA or Myc in the presence and/or absence of NEM/IAA.
A yeast two-hybrid screen for HLS-5 interacting partners identified two proteins involved in the sumoylation pathway viz Ubc9 and PIAS1.
The interaction between HLS-5 and Ubc9 was characterized further by yeast 2 hybrid assays to define important binding domains. […] To confirm that HLS-5 and Ubc9 were genuine binding partners, the interaction was investigated in mammalian cells using bioluminescence resonance energy transfer (BRET), which is able to detect protein:protein interactions in living cells (Xu et al., 1999, Proc Natl Acad Sci USA, 96, 151-156). […]

[4] = biological target: T2, PIAS1 (Homo sapiens, UniProt O75925); assay: Co-immunoprecipitation of HLS-5 and PIAS1 in COS cells; format: binding; details: when GATA-1 was present
T2 construct: HA; expressed in transfected cells; host or cells: COS7
T2 sequence (O75925 whole entry, species assumed): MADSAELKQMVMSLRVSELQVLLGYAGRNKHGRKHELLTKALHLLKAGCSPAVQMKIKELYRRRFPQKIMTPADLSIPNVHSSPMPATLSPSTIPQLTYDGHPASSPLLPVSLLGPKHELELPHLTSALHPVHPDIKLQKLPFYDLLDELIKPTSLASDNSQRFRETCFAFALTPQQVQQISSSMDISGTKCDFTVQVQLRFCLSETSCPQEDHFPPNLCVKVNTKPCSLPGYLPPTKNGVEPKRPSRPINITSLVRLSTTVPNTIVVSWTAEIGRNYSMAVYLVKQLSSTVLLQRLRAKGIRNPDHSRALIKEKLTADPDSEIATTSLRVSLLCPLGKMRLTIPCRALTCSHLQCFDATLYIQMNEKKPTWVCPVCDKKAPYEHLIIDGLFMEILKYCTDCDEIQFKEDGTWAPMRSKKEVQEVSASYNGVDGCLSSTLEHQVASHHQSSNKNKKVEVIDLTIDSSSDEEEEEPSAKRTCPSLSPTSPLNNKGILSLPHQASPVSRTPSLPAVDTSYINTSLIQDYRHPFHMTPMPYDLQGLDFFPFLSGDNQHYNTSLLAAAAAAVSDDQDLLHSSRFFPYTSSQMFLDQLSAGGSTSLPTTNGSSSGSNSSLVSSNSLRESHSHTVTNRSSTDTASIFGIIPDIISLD
Experimental: as §2
As PIAS1 mainly is a nuclear protein (Tan et al., 2000, Mol Endocrinol, 14, 14-26), and HLS-5 is primarily cytoplasmic, the failure of these molecules to interact may be caused by subcellular separation. Since GATA-1 promotes nuclear re-localization of HLS-5 (see below and FIG. 3b) it was included in co-transfections with HLS5 and PIAS1. […] It is postulated that the redistribution of HLS-5 induced by GATA-1 enabled nuclear access and binding to PIAS1 or that GATA-1, HLS-5 and PIAS1 form a protein complex required for this interaction.

[5] = biological target: T3, SUMO-1 (Homo sapiens, UniProt P63165); assay: Yeast two-hybrid binding of HLS-5 to SUMO-1
T3 construct: expressed in transfected cells; host or cells: yeast (two-hybrid)
T3 sequence (P63165 whole entry, species assumed): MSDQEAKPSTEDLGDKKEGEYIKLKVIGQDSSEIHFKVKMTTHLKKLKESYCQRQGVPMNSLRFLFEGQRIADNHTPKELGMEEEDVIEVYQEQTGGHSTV
Experimental: (§3) (A) Potential sumoylation sites of HLS-5 are shown. (B) Binding of Hls-5 deletion mutants to full length Sumo-1 was examined in the yeast system by filter assay for β-galactosidase activity. (C) Interaction between Hls-5 and Sumo-1, 2 or 3 was examined using yeast two-hybrid. Binding was assessed using a liquid assay to measure β-galactosidase activity. Samples were measured in triplicate and shown is the mean±standard deviation. (D) Lysates from COS7 cells transfected with Myc-tagged Hls-5, and/or HA-tagged Sumo-1, HA-tagged UBC9, HA-tagged PIAS1 were immunoblotted (IB) with antibodies to Sumo-1 or Myc.
(§4) Since HLS-5 was able to interact with Ubc9 and PIAS1, the possibility that HLS-5 is sumoylated was then examined. Like other RBCC/TRIM family members such as PML (Duprez et al., 1999, J Cell Sci., 112, 381-393; Kamitani et al., 1998, J. Biol. Chem., 273, 26675-26682), HLS-5 has several ΨKxE/D consensus sumoylation sites (FIG. 2a). To determine if HLS-5 was able to bind SUMO-1, the yeast two-hybrid system was employed using several HLS-5 deletion mutants.

[6] = test system: global SUMOylation; assay: Total protein sumoylation by immunoblotting in COS cells co-expressing SUMO-1 and HLS-5; format: cell-based; details: SUMO-1 and HLS-5 co-expressed
Description: (§5) (A) Hela cells co-expressing Myc-tagged HLS-5 and HA-tagged PIAS1. PIAS1 was detected with an anti-HA antibody and HLS-5 was detected as a GFP fusion protein in conjunction with red and green fluorescent secondary antibodies respectively. (B) COS7 cells transfected with GFP-tagged HLS-5 and/or HA-tagged PIAS1, UBC9 or SUMO-1 and immunoblotted (IB) with antibodies to HA. (C) Lysates from COS7 cells transfected with Different Myc-tagged HLS-5 deletion constructs and HA-tagged-PIAS1, and GFP-tagged Histone 2B as a transfection/Loading control. Samples were immunoblotted (IB) with antibodies to GFP, HA and Myc.
(§6) To investigate whether HLS-5 was a functional E3 ligase, SUMO-1 and HLS-5 were co-expressed in COS cells and total protein sumoylation ascertained by immunoblotting. […] We then investigated which domain of HLS-5 was involved in the elimination of PIAS1 protein expression. […] Thus, HLS-5 altered global protein SUMOylation and reduced intracellular content of SUMO-1, PIAS1 and Ubc9, key components of the SUMOylation machinery and this action is accomplished partly through its B Box & Coiled Coil domain.

[7] = test system: SUMO-3; assay: Yeast two-hybrid binding of HLS-5 to SUMO-3; details: liquid β-galactosidase assay
Experimental: as §3, §4

[8] = test system: PIAS1; assay: Immunoblot of PIAS1 levels in COS cells co-expressing HLS-5 or deletion mutants; format: cell-based; details: co-expression with HA-tagged PIAS1, FIG. 5B/5C
Description: as §5, §6

[9] = test system: Ubc9; assay: Immunoblot of Ubc9 levels in COS cells co-expressing HLS-5; format: cell-based; details: co-expression, FIG. 5B
Description: as §5, §6

[10] = test system: GATA-1; assay: Co-immunoprecipitation of HLS-5 and GATA-1 in COS cells; format: binding; details: with isopeptidase inhibitors NEM and IAA
Experimental: (§7) (B and C) Lysates from COS7 cells transfected with Myc-tagged HLS-5 and/or GATA-1, and/or HA-tagged Sumo-1, and/or HA-tagged PIAS1 were immunoblotted (IB) with antibodies to GATA-1, HA or Myc D) COS7 cells were transfected as shown in the presence of pGL3-M1α firefly luciferase reporter construct and pRN-CMV renilla luciferase construct. Relative GATA-1 activity was determined by dividing firefly activity with renilla activity. Amount of DNA used was 200 ng per transfection (+) unless otherwise shown. Samples were performed in duplicate and shown is the mean±range. Data shown are representative of three independent experiments.
The interaction between GATA-1 and HLS5 was then examined biochemically by transfecting COS cells with myc-tagged HLS-5 and GATA-1, followed by immunoprecipitation and immunoblotting.

[11] = test system: GATA-1; assay: GATA-1 transactivation luciferase reporter assay in COS cells; format: cell-based
Experimental: as §7
The effect of HLS-5 on sumoylated GATA-1 transactivation was then examined using the MIα promoter and luciferase reporter assays. […] These observations contrast with the inhibitory effects of GATA-1 sumoylation on transactivation reported by Collavin et al. (2004, supra). […] These observations are consistent with a modulatory role for HLS5 in sumoylation.

[12] = test system: SUMO-2; assay: Yeast two-hybrid binding of HLS-5 to SUMO-2; details: liquid β-galactosidase assay
Experimental: as §3, §4

[13] = test system: SUMOylated substrate; assay: SUMOylated substrate co-immunoprecipitating with Myc-tagged HLS-5 in COS7 cells; format: cell-based; details: HA-tagged SUMO1, in the presence of MG132, FIG. 6A
Experimental: (A) COS7 cells co-expressing Myc-tagged HLS-5 or a mutant form of HLS5 lacking its Ring finger (ΔN61) and HA-tagged SUMO1 in the presence or absence of MG132. SUMOylated substrate was detected with an anti-HA antibody and HLS-5 was immunoprecipitated by using a Myc antibodies respectively.
as §1

[14] = test system: SUMO-1; assay: Immunoblot of SUMO-1 levels in COS cells co-expressing HLS-5; format: cell-based; details: SUMO-1 and HLS-5 co-expressed, FIG. 5B
Description: as §5, §6

[15] = biological target: T1, Ubc9; assay: BRET assay of HLS-5 and Ubc9 in COS cells; format: binding; details: HLS-5 and Ubc9 constructs co-expressed in COS cells
Experimental: as §2
The interaction between HLS-5 and Ubc9 was characterized further by yeast 2 hybrid assays to define important binding domains. […] To confirm that HLS-5 and Ubc9 were genuine binding partners, the interaction was investigated in mammalian cells using bioluminescence resonance energy transfer (BRET), which is able to detect protein:protein interactions in living cells (Xu et al., 1999, Proc Natl Acad Sci USA, 96, 151-156). […] However, this interaction may well be transient as the two molecules could not be co-immunoprecipitate (data not shown). […]

Molecule: CC(C)C[C@@H](C=O)NC(=O)[C@H](CC(C)C)NC(=O)[C@H](CC(C)C)NC(=O)OCc1ccccc1 [MG132] (Cbz-Leu-Leu-Leu-aldehyde)
translocation of HLS-5 from cytoplasmic granules into the nucleus ([1]; COS7 cells): translocation was also observed
effect on HLS-5 accumulation ([1]; COS7 cells expressing myc-tagged HLS-5, FIG. 3C): accumulation of HLS-5

Molecule: Ubc9: E2 enzyme in the SUMO-1 conjugation pathway
apoptosis / cell death caused by HLS5 [2]: 12 % of cells

association with Ubc9 [3]: able to associate with Ubc9
co-immunoprecipitation with PIAS1 [4]: could co-immunoprecipitate
interaction with SUMO-1 [5]: could interact with SUMO-1
binding to SUMO-3 [7]: neither SUMO-2, nor SUMO-3 bound
binding to SUMO-2 [12]: neither SUMO-2, nor SUMO-3 bound
BRET ratio [15]: positive BRET ratio
B1: HLS-5: member of the RING finger B-box Coiled-coil (RBCC) protein family; tested by expression from transfected constructs (protein, listed as Homo sapiens)
chain: MERSPDVSPGPSRSFKEELLCAVCYDPFRDAVTLRCGHNFCRGCVSRCWEVQVSPTCPVCKDRASPADLRTNHTLNNLVEKLLREEAEGARWTSYRFSRVCRLHRGQLSLFCLEDKELLCCSCQADPRHQGHRVQPVKDTAHDFRAKCRNMEHALREKAKAFWAMRRSYEAIAKHNQVEAAWLEGRIRQEFDKLREFLRVEEQAILDAMAEETRQKQLLADEKMKQLTEETEVLAHEIERLQMEMKEDDVSFLMKHKSRKRRLFCTMEPEPVQPGMLIDVCKYLGSLQYRVWKKMLASVESVPFSFDPNTAAGWLSVSDDLTSVTNHGYRVQVENPERFSSAPCLLGSRVFSQGSHAWEVALGGLQSWRVGVVRVRQDSGAEGHSHSCYHDTRSGFWYVCRTQGVEGDHCVTSDPATSPLVLAIPRRLRVELECEEGELSFYDAERHCHLYTFHARFGEVRPYFYLGGARGAGPPEPLRICPLHISVKEELDG
overall sumoylation [6]: reduced
PIAS1 protein level [8]: almost complete elimination of PIAS1
apoptosis / cell death caused by HLS5 [2]: 60 % of cells
Ubc9 protein level [9]: reduced the levels of Ubc9
co-immunoprecipitation with GATA-1 [10]: GATA-1 was detected in HLS-5 immunoprecipitates
GATA-1 activity ([11]; co-expression with SUMO-1): decreased GATA-1 activity
GATA-1 transactivation ([11]; in the presence of both SUMO-1 and PIAS1): suppressed GATA-1 transactivation
SUMOylated substrate detected with anti-HA antibody [13]: SUMOylated substrate detected
reduction of the levels of SUMO-1 [14]: > 95%
